Molecular target: T1, F-box protein 28 (FBXO28)
T1 chain: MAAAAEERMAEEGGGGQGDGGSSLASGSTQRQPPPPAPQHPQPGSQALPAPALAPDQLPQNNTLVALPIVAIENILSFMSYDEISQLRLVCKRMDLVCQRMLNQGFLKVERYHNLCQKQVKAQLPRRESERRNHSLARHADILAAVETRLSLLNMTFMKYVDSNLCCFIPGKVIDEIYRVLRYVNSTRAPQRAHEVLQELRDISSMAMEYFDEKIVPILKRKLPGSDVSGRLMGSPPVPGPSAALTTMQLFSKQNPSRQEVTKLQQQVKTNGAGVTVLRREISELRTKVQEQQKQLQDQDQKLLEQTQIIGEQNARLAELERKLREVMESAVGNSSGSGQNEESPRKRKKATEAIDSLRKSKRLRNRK

B1: 6-phosphofructo-2-kinase/fructose-2,6-biphosphatase 4 (PFKFB4) (protein)
chain: MASPRELTQNPLKKIWMPYSNGRPALHACQRGVCMTNCPTLIVMVGLPARGKTYISKKLTRYLNWIGVPTREFNVGQYRRDVVKTYKSFEFFLPDNEEGLKIRKQCALAALRDVRRFLSEEGGHVAVFDATNTTRERRATIFNFGEQNGYKTFFVESICVDPEVIAANIVQVKLGSPDYVNRDSDEATEDFMRRIECYENSYESLDEDLDRDLSYIKIMDVGQSYVVNRVADHIQSRIVYYLMNIHVTPRSIYLCRHGESELNLKGRIGGDPGLSPRGREFAKSLAQFISDQNIKDLKVWTSQMKRTIQTAEALGVPYEQWKVLNEIDAGVCEEMTYEEIQDNYPLEFALRDQDKYRYRYPKGESYEDLVQRLEPVIMELERQENVLVICHQAVMRCLLAYFLDKAAEQLPYLKCPLHTVLKLTPVAYGCKVESIFLNVAAVNTHRDRPQNVDISRPPEEALVTVPAHQ
Question: What does the source list for B1?
Answer: HIF1a protein level (Western blot) after knockdown in GSCs: silencing of both FBXO28 and PFKFB4 in the GSCs rescued the level of HIF1a; ubiquitylation of HIF1a (ubiquitin immunoblot on immunoprecipitated HIF1a upon MG132 treatment): the ubiquitylation of HIF1a is decreased in cells overexpressing PFKFB4

Source: US20210033615
